# Measurements: publication PMC9182242, “Copper Binding and Oligomerization Studies of the Metal Resistance Determinant CrdA from Helicobacter pylori” (Molecules, 2022)
# B1: CrdA protein from Helicobacter pylori (HpCrdA) (natural protein)
# chain: QTLKANDLEVKIKSVGNPIKGDNTFILSPTLKGKALEKAIVRVQFMMPEMPGMPAMKEMAQVSEKNGLYEAKTNLSMNGTWQVRVDIKSKEGQVYRAKTSLDL
# notes: predicted mass of the monomer ~12.4 kDa; Residues of the pGEX-6P-1 linker probably remain after PreScission cleavage (surmised); also called HP1326; apo-HpCrdA; source: E. coli BL21(DE3), purified (GSTrap, GST cleaved with PreScission protease, Superdex 75 SEC); not shown: GST, N-terminal, cleaved
# Biological target: the molecule itself
# Test: SEC; analytical SEC, Superose 12 10/300 GL, 20 mM Tris-base pH 7.5, 150 mM NaCl, 3.8 mM nOG; HpCrdA incubated with EDTA (metal chelated); monomer-dimer equilibrium
protein,measurement,value
B1,stoichiometry N,2
